T1: recombinant Flfl^1–168 (untagged) (Drosophila melanogaster, UniProt Q9VFS5 1-168)
T1 construct: pETDuet-1 (MCS1), TEV site between His tag and Flfl; source: E. coli Rosetta2(DE3)pLysS, purified (Ni-NTA, TEV cleavage, re-incubation with Ni-NTA); not shown: 6xHis, N-terminal, cleaved
T1 sequence (looked up): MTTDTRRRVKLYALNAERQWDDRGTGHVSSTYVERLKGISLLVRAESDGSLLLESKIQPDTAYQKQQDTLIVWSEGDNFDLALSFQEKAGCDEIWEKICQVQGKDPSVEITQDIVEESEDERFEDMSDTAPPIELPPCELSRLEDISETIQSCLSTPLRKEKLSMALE

T2: Flfl^1–122 (Drosophila melanogaster, UniProt Q9VFS5 1-122)
T2 construct: Falafel (Flfl) residues 1-122, holds the EVH1 domain; residues 4-114 are in the final model; also called Falafel (1–122); His::TEV::Flfl^1–122aa; source: E. coli BL21 (DE3) RIL, purified (HisTrap, TEV cleavage, anion exchange, SEC); not shown: 6xHis, N-terminal, cleaved
T2 sequence (looked up): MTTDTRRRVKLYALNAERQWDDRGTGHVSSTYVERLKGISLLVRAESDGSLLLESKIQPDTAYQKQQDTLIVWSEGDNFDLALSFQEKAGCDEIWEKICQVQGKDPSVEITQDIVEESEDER

B1: recombinant CENP-C^FBD (untagged) (domain or fragment, Drosophila melanogaster, UniProt Q9VHP9 1002-1093, looked up)
chain: IDQNSDDVPSRNPSPSRTLLSDDVPSTSRAALEFLQRSQNMSKSRPPDESSADVVFKKPLAPAPRAKSKKGKSEVDKLKLAKMPVEAEELNT
notes: pETDuet-1 (MCS1), TEV site between His tag and FBD; also called His::TEV::CENP-C^FBD; source: E. coli Rosetta2(DE3)pLysS, purified (Ni-NTA, TEV cleavage, re-incubation with Ni-NTA); not shown: 6xHis, N-terminal, cleaved
B2: CENP-C^FIM peptide (peptide)
peptide: PDESSADVVFKKPLAPAPR
notes: source: synthetic peptide (in solution for crystallisation; spotted onto a cellulose membrane for the substitution array)

Columns and labels:
Conditions in all cases: both partners purified
[1] = molecular target: T1, recombinant Flfl^1–168 (untagged); assay: SEC; Flfl^1–168 and CENP-C^FBD mixed ~1:1 molar ratio, 16 h on ice, Superdex 200; fractions on SDS-PAGE, Coomassie
Flfl^1–122 = molecular target: T2, Flfl^1–122; assay: crystal structure; Flfl^1–122 at 22 mg/ml incubated overnight with FIM peptide 1:1.3, sitting drop, ammonium sulfate; 1.5 Å
[2] = molecular target: T1, recombinant Flfl^1–168 (untagged); assay: peptide or protein array; substitution array: every residue of the 19-mer FIM replaced by the other amino acids, on cellulose membrane; 100 nM untagged Flfl^1–168, 4 °C overnight; anti-Flfl detection

| Binder | binding result [1] | binding result (Flfl^1–122) | binding result [2] |
| --- | --- | --- | --- |
| B1 | binds |  |  |
| B2 |  | binds | binds |
